{
  "source": "paper PMC2599749",
  "about": "(Protein expression and purification, 2008)",
  "proteins": {"B1": {"name": "bZIP domain of Activating Transcription Factor 5 (ATF5), untagged (domain or fragment, UniProt Q9Y2D1 208-271, looked up)", "chain": "GDRKQKKRDQNKSAALRYRQRKRAEGEALEGECQGLEARNRELKERAESVEREIQYVKDLLIEV"}},
  "key": {"non-reducing SDS-PAGE": {"biological_target": "the molecule itself", "assay": "non-reducing SDS-PAGE"}, "[1]": {"biological_target": "the molecule itself", "assay": "HPLC/ESI mass spectrometry"}},
  "data": [
    {"protein": "B1", "values": [
      {"measurement": "monomer:dimer ratio (densitometry of the SDS-PAGE gel)", "setting": "non-reducing SDS-PAGE", "value": 1.7, "unit": "dimer per 1.0 monomer"},
      {"measurement": "stoichiometry N", "setting": "[1]", "value": 2}
    ]}
  ]
}
